Target: teichuronic acid synthetase (TUAS) subunit B, 52.5 kDa (Micrococcus luteus (endogenous in ATCC 4698))
Experiment: native gel or EMSA; endogenous TUAS co-purified from detergent-solubilised membranes; the active ~440 kDa band on a 3-12% native gradient polyacrylamide gel is separated by 9.5% SDS-PAGE into the 54 kDa and 52.5 kDa subunits; the complex carries lipids and pigments

Substance: teichuronic acid synthetase (TUAS) subunit A, 54 kDa (natural protein)
- stoichiometry N: 8
